The Human Domainome abundance scans (Beltran et al. 2025)

B1: Protein C-ets-1, residues 55 to 135; numbered along this chain, P14921 (parent)
chain: GFTKEQQRLGIPKDPRQWTETHVRDWVMWAVNEFSLKGVDFQKFCMNGAALCALGKDCFLELAPDFVGDILWEHLEILQKE

Variants of: B1
Experiment: abundance fitness (aPCA) (normalised: wild type 0, dead -1); higher = more abundant; growth selection in yeast, the domain comes from the species named
Details: Homo sapiens

Abundance fitness of substitutions, site by site:
Q7: C -0.256; G -0.047; N -0.026; D 0; E 0.089; V -0.028; R -0.034; P -0.294; F -0.121; K 0.074; A -0.055; M 0.04; L -0.02; I 0.062; W -0.133; T -0.06; S -0.069
W18: E -0.814; R -0.733; T -0.999; A -0.967; K -1.01; N -0.965; V -0.891; H -1.05; C -0.785; Q -0.899; D -0.962; L -0.954; G -0.992; M -1.08; F -1.11
E5: G -0.253; C -0.129; Q -0.123; L -0.108; D -0.216; M -0.018; V -0.05; I -0.105; Y -0.045; S -0.245; F -0.088; H -0.087; W -0.186; A -0.062; K -0.183; T -0.117; R -0.132
T19: Q -0.228; V -0.635; R -0.205; S -0.052; I -0.705; L -0.376; E -0.155; F -0.858; W -0.945; C -0.221; N -0.16; P -0.936; H -0.153; Y -0.642; M -0.345
K13: H -0.04; L -0.065; G -0.088; W -0.117; V -0.1; T -0.064; C -0.04; I -0.022; E -0.084; P 0.023; M -0.086; N 0.008; R -0.077; Y -0.249; Q -0.059; D -0.054; F -0.152
D14: M -0.52; W -0.661; C -0.152; N -0.122; I -0.76; Y -0.407; P -0.813; L -0.552; A -0.533; S -0.339; T -0.62; G -0.844; H -0.155; K -0.547; E -0.172; Q -0.356; R -0.684; V -0.602; F -0.443
R8: Y -0.212; V -0.122; G -0.112; M -0.138; Q -0.083; S -0.136; P -0.132; H -0.095; C -0.154; I -0.17; D -0.093; K -0.062; F -0.091; N -0.16; E -0.074; W -0.169; T -0.111; L -0.086
F2: A -0.24; T -0.23; G -0.272; K -0.232; Y -0.161; E -0.345; Q -0.522; N -0.141; R -0.298; V -0.289; L -0.343; C -0.408; S -0.365; M -0.238; P -0.398; H -0.43; D -0.143; I -0.355
G1: Y -0.114; W -0.248; V -0.108; S -0.039; T -0.262
Q17: T 0.033; F -0.1; H -0.115; P -0.983; G -0.159; M 0.014; Y -0.154; D 0.016; E 0.046; R -0.058; L -0.088; V 0.002; W -0.148; C -0.034; I -0.114; A 0.013; N -0.021
G10: E -0.067; A -0.057; Y -0.33; Q 0.008; N -0.135; R -0.056; W -0.364; T -0.103; K -0.028; I -0.187; H -0.072; L -0.244; C -0.15; D 0.015; S -0.062; V -0.2; P -0.263
K4: C -0.108; H -0.148; S -0.055; P -0.325; F 0.038; L -0.085; Q -0.031; A -0.178; M -0.043; N 0.024; W -0.207; R -0.071; I 0.037; T -0.071; V -0.098; Y -0.039; E 0.008; G -0.054
Q6: T -0.102; M 0.024; L -0.006; K -0.143; S -0.005; H -0.235; F -0.075; I 0.034; C -0.113; G -0.101; W -0.1; V -0.096; P -0.389; A 0.019; D -0.277; Y -0.058; E -0.164; R -0.041; N -0.136
R16: Y -0.049; D -0.147; E -0.01; W -0.107; V -0.055; Q -0.006; A -0.009; L -0.025; F -0.024; P -0.643; I -0.038; C -0.04; G -0.108; S -0.096; M -0.029; N 0.031
P15: M -0.286; I -0.064; K -0.813; D -1.15; H -0.791; A -0.351; F -0.935; N -0.717; G -0.845; S -1.02; C -0.254; E -0.974; T -0.498; L -0.281; Q -0.838; Y -1.07; V -0.1; W -0.685
L9: P -0.32; K -0.139; V -0.126; C -0.088; E -0.261; A -0.182; I -0.178; F -0.2; H -0.216; G -0.195; Q -0.165; M -0.066; R -0.017; W -0.192; N -0.137; Y -0.158; T -0.082
T21: C -0.089; A 0.002; D 0.081; E -0.073
P12: R -0.709; V -0.763; F -0.606; T -0.799; C -0.305; E -0.413; N -0.47; W -0.706; A -0.46; L -0.567; D -0.371; S -0.28; M -0.747; H -0.379; K -0.419; G -0.427; Q -0.814
T3: N -0.121; Y -0.206; F -0.029; P -0.177; L -0.055; C -0.075; W -0.031; G -0.042; I -0.005; Q -0.032; A -0.032; R -0.082; V -0.063; M -0.028; H -0.066; K 0.025; E 0.011
E20: Y -0.224; A -0.035; C -0.105; I -0.128; G -0.264; D -0.107; F -0.396; P -0.059; V -0.019; T -0.036; M -0.078; W -0.463; L -0.209; Q -0.021; N -0.114; K -0.036
I11: K -0.695; W -0.078; E -0.773; D -0.647; N -0.288; A -0.326; P -0.465; L -0.013; S -0.344; C -0.108; H -0.364; Y -0.207; V -0.09; R -0.132; G -0.583; M -0.043; T -0.205
